According to PMC6100724, “Proteome‐wide analysis of phospho‐regulated PDZ domain interactions” (Molecular Systems Biology, 2018):
Square brackets hold non-standard residues; d marks the D form. Ends that are not written are not given here. * marks the point of attachment. FITC = O=C1OC2(c3ccc(O)cc3Oc3cc(O)ccc32)c2ccc(NC(=S)*)cc21; pS = N[C@@H](COP(=O)(O)O)C(=O)O

T1: SHANK1 PDZ (human, aa 652-761) (human, UniProt Q9Y566 652-761)
T1 construct: Shank1, human, PDZ, aa 652-761 in pETM-33; source: E. coli BL21 Gold (DE3), purified (Ni2+ Sepharose; tag removed with HRV3C protease)
T1 sequence (looked up): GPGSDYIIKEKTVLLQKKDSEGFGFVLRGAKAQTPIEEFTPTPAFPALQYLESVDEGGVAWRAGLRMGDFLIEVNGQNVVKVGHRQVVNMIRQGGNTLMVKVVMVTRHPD

B1: RPS6KA2 peptide MKRLTpSTRL (p-3 phosphorylated) (peptide)
peptide: MKRLT[pS]TRL
notes: C-terminal nine residues of RPS6KA2, human; also called pRPS6KA2; phospho-RPS6KA2; source: synthetic peptide, bought: GeneCust
B2: MCC peptide RPHTNETSL (unphosphorylated) (peptide)
peptide: RPHTNETSL
notes: C-terminal nine residues of MCC (colorectal mutant cancer protein), human; source: synthetic peptide, bought: GeneCust
B3: RPS6KA2 peptide MKRLTSTRL (unphosphorylated) (peptide)
peptide: MKRLTSTRL
notes: C-terminal nine residues of RPS6KA2, human; source: synthetic peptide, bought: GeneCust
B4: MCC peptide RPHTNETpSL (p-1 phosphorylated) (peptide)
peptide: RPHTNET[pS]L
notes: C-terminal nine residues of MCC (colorectal mutant cancer protein), human; also called pMCC; source: synthetic peptide, bought: GeneCust
B5: FITC-KRpSFIESNV, p-6 phosphorylated TANC1 peptide (peptide)
peptide: {FITC}-KR[pS]FIESNV
notes: also called TANC1 Phosphorylated; source: synthetic peptide (GeneCust)
B6: FITC-KRSFIESNV, unphosphorylated TANC1 peptide (peptide)
peptide: {FITC}-KRSFIESNV
notes: also called TANC1 Unphosphorylated; source: synthetic peptide (GeneCust)
B7: FITC-RLTSTRL, unphosphorylated RPS6KA2 peptide (peptide)
peptide: {FITC}-RLTSTRL
notes: C-terminal peptide of human RPS6KA2 (RLTSTRL-coo-); also called RPS6KA2 Unphosphorylated; source: synthetic peptide (GeneCust)
B8: FITC-RLTpSTRL, p-3 phosphorylated RPS6KA2 peptide (peptide)
peptide: {FITC}-RLT[pS]TRL
notes: also called RPS6KA2 Phosphorylated; source: synthetic peptide (GeneCust)
B9: FITC-RLTETRL, phosphomimetic (p-3) RPS6KA2 peptide (peptide)
peptide: {FITC}-RLTETRL
notes: also called RPS6KA2 Mimetic; source: synthetic peptide (GeneCust)
B10: FITC-KRSFIESNV (TANC1 peptide, unphosphorylated) (peptide)
peptide: {FITC}-KRSFIESNV
notes: C-terminal nine residues of TANC1, human; source: synthetic peptide, bought: GeneCust
B11: FITC-RLTETRL (RPS6KA2 peptide, phosphomimetic at p-3) (peptide)
peptide: {FITC}-RLTETRL
notes: C-terminal seven residues of RPS6KA2, human, with S730E; also called Mimetic RPS6KA2; source: synthetic peptide, bought: GeneCust
B12: FITC-HTNETSL (MCC peptide, unphosphorylated) (peptide)
peptide: {FITC}-HTNETSL
notes: C-terminal seven residues of MCC, human; source: synthetic peptide, bought: GeneCust
B13: FITC-HTNETpSL (MCC peptide, p-1 phosphorylated) (peptide)
peptide: {FITC}-HTNET[pS]L
notes: C-terminal seven residues of MCC, human; also called pMCC; source: synthetic peptide, bought: GeneCust
B14: FITC-RLTSTRL (RPS6KA2 peptide, unphosphorylated) (peptide)
peptide: {FITC}-RLTSTRL
notes: C-terminal seven residues of RPS6KA2, human; source: synthetic peptide, bought: GeneCust
B15: FITC-KRpSFIESNV (TANC1 peptide, p-6 phosphorylated) (peptide)
peptide: {FITC}-KR[pS]FIESNV
notes: C-terminal nine residues of TANC1, human; also called pTANC1; source: synthetic peptide, bought: GeneCust
B16: FITC-HTNETEL (MCC peptide, phosphomimetic at p-1) (peptide)
peptide: {FITC}-HTNETEL
notes: also called Mimetic MCC; source: synthetic peptide, bought: GeneCust
B17: FITC-RLTpSTRL (RPS6KA2 peptide, p-3 phosphorylated) (peptide)
peptide: {FITC}-RLT[pS]TRL
notes: C-terminal seven residues of RPS6KA2, human; the methods give pS at this position; also called pRPS6KA2; source: synthetic peptide, bought: GeneCust
B18: FITC-KREFIESNV (TANC1 peptide, phosphomimetic at p-6) (peptide)
peptide: {FITC}-KREFIESNV
notes: also called Mimetic TANC1; source: synthetic peptide, bought: GeneCust
B19: FITC-labeled RPS6KA1 peptide, p-3 phosphorylated (VRKLPpSTTL) (peptide)
peptide: VRKLP[pS]TTL
modifications: also: FITC label, position not given here
notes: C-terminal tail of human RPS6KA1; also called phosphorylated RPS6KA1; source: synthetic peptide (FITC-labeled)
B20: FITC-labeled RPS6KA1 peptide, unphosphorylated (VRKLPSTTL) (peptide)
peptide: VRKLPSTTL
modifications: also: FITC label, position not given here
notes: C-terminal tail of human RPS6KA1; also called unphosphorylated RPS6KA1 peptide; source: synthetic peptide (FITC-labeled)
B21: FITC-HTNETSL (MCC peptide, unphosphorylated) (peptide)
peptide: {FITC}-HTNETSL
notes: C-terminal peptide of human MCC (colorectal mutant cancer protein); also called wild-type MCC peptide; source: synthetic peptide, bought: GeneCust
B22: FITC-HTNETpSL (MCC peptide, phosphorylated at p-1) (peptide)
peptide: {FITC}-HTNET[pS]L
notes: C-terminal peptide of human MCC; also called pMCC; source: synthetic peptide, bought: GeneCust
B23: RPHTNETpSL (MCC peptide, phosphorylated at p-1, unlabelled) (peptide)
peptide: RPHTNET[pS]L
notes: C-terminal peptide of human MCC; also called phosphorylated MCC; source: synthetic peptide, bought: GeneCust
B24: MKRLTSTRL (RPS6KA2 peptide, unphosphorylated, unlabelled) (peptide)
peptide: MKRLTSTRL
notes: C-terminal peptide of human RPS6KA2; also called unphosphorylated RPS6KA2; unphosphorylated ligand; source: synthetic peptide, bought: GeneCust
B25: RPHTNETSL (MCC peptide, unphosphorylated, unlabelled) (peptide)
peptide: RPHTNETSL
notes: C-terminal peptide of human MCC; also called unphosphorylated MCC; source: synthetic peptide, bought: GeneCust

What follows are binders tested against T2, Scribble PDZ1 (human, aa 719-829) (human, UniProt Q14160 719-829) (assay: ITC; iTC200, 25°C, 20 mM HEPES pH 7.4; protein 50-100 µM in the cell, 0.64-3 mM peptide in the syringe; single-site fit, stoichiometry fixed to 0.8-1.1; triplicate). Settings: both partners purified.
T2 construct: Scribble, human, PDZ1, aa 719-829 in pETM-11; The His tag was cleaved only for the NMR samples; nothing is said of cleavage for MST and ITC; also called Scribble PDZ1 wild type; source: E. coli BL21 Gold (DE3), purified (Ni2+ Sepharose)
T2 sequence (Q14160 719-829): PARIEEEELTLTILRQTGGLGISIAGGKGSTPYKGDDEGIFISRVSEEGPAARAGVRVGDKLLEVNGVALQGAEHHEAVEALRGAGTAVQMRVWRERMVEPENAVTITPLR

Binder | Kd [µM]
B1 | 4
B2 | 4.4
B3 | 18
B4 | 2.6

The binders below were run against T3, Scribble PDZ1 R762A (human, UniProt Q14160 719-829, R762A) in the same assay as above. Settings: both partners purified.
T3 construct: Scribble, human, PDZ1, aa 719-829 in pETM-11, with R762A; source: E. coli BL21 Gold (DE3), purified (Ni2+ Sepharose)
T3 sequence (Q14160 719-829 R762A): as the sequence (Q14160 719-829) above, with R44A counted along it

Binder | Kd [µM]
B1 | 25
B2 | 11.3
B3 | 9.7
B4 | 25

What follows are binders tested against T4, Scribble PDZ1 R762A/A743R (human, UniProt Q14160 719-829, A743R | R762A) in the same assay as above. Settings: both partners purified.
T4 construct: Scribble, human, PDZ1, aa 719-829 in pETM-11, with R762A and A743R; also called R762A/A743R mutant; source: E. coli BL21 Gold (DE3), purified (Ni2+ Sepharose)
T4 sequence (Q14160 719-829 A743R/R762A): as the sequence (Q14160 719-829) above, with A25R, R44A counted along it

Binder | Kd [µM]
B1 | 15
B2 | 5.8
B3 | 60
B4 | 14

What follows are binders tested against T5, Scribble PDZ1 R801A (human, UniProt Q14160 719-829, R801A) in the same assay as above. Settings: both partners purified.
T5 construct: Scribble, human, PDZ1, aa 719-829 in pETM-11, with R801A (text, methods and primers); source: E. coli BL21 Gold (DE3), purified (Ni2+ Sepharose)
T5 sequence (Q14160 719-829 R801A): as the sequence (Q14160 719-829) above, with R83A counted along it

Binder | Kd [µM]
B1 | 17
B3 | 28

What follows are binders tested against T6, Scribble PDZ1 K746A (human, UniProt Q14160 719-829, K746A) in the same assay as above. Settings: both partners purified.
T6 construct: Scribble, human, PDZ1, aa 719-829 in pETM-11, with K746A; source: E. coli BL21 Gold (DE3), purified (Ni2+ Sepharose)
T6 sequence (Q14160 719-829 K746A): as the sequence (Q14160 719-829) above, with K28A counted along it

Binder | Kd [µM]
B1 | 10
B3 | 10

The binders below were run against T7, Scribble PDZ1 A743R (human, UniProt Q14160 719-829, A743R) in the same assay as above. Settings: both partners purified.
T7 construct: Scribble, human, PDZ1, aa 719-829 in pETM-11, with A743R; the text describes A743R only in the R762A background; source: E. coli BL21 Gold (DE3), purified (Ni2+ Sepharose)
T7 sequence (Q14160 719-829 A743R): as the sequence (Q14160 719-829) above, with A25R counted along it

Binder | Kd [µM]
B1 | 2.8
B3 | 15

Each binder was assayed against T8, DLG1 PDZ2 (human DLG1 PDZ2 aa 311-407) (human, UniProt Q12959 311-407) (assay: MST; FITC-labeled peptide fixed at 25-50 nM, DLG1 PDZ2 titrated (1:1 dilution series); 50 mM Tris-HCl pH 7.4, 0.1% Tween-20; KD from thermophoresis and T-Jump signal; n = 3). Settings: both partners purified.
T8 construct: Disks large homolog 1 (DLG1), human, second PDZ domain, aa 311-407, in a modified pRSET vector (Chi et al, 2009); removal of the His tag is told only for the NMR sample of Scribble PDZ1 and for SHANK1 PDZ; also called DLG PDZ2; source: E. coli BL21 Gold (DE3), purified (Ni2+ Sepharose), dialyzed into 50 mM Tris-HCl pH 7.4
T8 sequence (Q12959 311-407): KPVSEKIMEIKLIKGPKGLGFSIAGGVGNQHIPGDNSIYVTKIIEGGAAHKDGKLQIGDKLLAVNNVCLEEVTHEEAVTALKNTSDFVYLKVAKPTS

Binder | Kd [µM]
B5 | 6.1
B6 | 2.7
B7 | 95
B8 | 72
B9 | 14

These binders were tested against T2, Scribble PDZ1 (human, aa 719-829) (assay: MST; FITC-labelled peptide fixed at 25-50 nM, PDZ domain titrated (1:1 dilution series); 50 mM Tris-HCl pH 7.4, 0.1% Tween-20; thermophoresis and T-Jump signal; triplicate). Settings: both partners purified.

Binder | Kd [µM]
B10 | 42
B11 | 0.7
B12 | 1.8
B13 | 0.6
B14 | 8.9
B15 | 101
B16 | 1.1
B17 | 1.7
B18 | 52

Each binder was assayed against T9, DLG1 PDZ2 (human, aa 311-407) (human, UniProt Q12959 311-407) in the same assay as above. Settings: both partners purified.
T9 construct: DLG1, human, PDZ2, aa 311-407 in a modified pRSET vector; also called DLG PDZ2; source: E. coli BL21 Gold (DE3), purified (Ni2+ Sepharose)
T9 sequence (Q12959 311-407): as above

Binder | Kd [µM]
B10 | 2.7
B11 | 14
B14 | 95
B15 | 6.1
B16 | 21
B17 | 72
B18 | 5.1

Each binder was assayed against T10, Scribble PDZ1 (His-tagged, aa 719-829) (human, UniProt Q14160 719-829) (assay: MST; FITC-labeled peptide fixed at 25-50 nM, protein (Scribble PDZ1 or DLG1 PDZ2) in a 1:1 dilution series; 50 mM Tris-HCl pH 7.4, 0.1% Tween-20; thermophoresis and T-Jump signal; n = 3). Settings: both partners purified.
T10 construct: human Scribble, PDZ1, aa 719-829, in pETM-11; Used for MST and ITC; removal of the His tag is told only for the NMR samples; also called Scribble PDZ1 wild type; source: E. coli BL21 Gold (DE3), purified (Ni2+ Sepharose), dialysed
T10 sequence (Q14160 719-829): as the sequence (Q14160 719-829) above

Binder | Kd [µM]
B19 | 0.39
B20 | 1

Each binder was assayed against T11, DLG1 PDZ2 (His-tagged, aa 311-407) (human, UniProt Q12959 311-407) in the same assay as above. Settings: both partners purified.
T11 construct: human DLG1, PDZ2, aa 311-407, in a modified pRSET vector; also called DLG PDZ2; source: E. coli BL21 Gold (DE3), purified (Ni2+ Sepharose), dialysed
T11 sequence (Q12959 311-407): as the sequence (Q12959 311-407) above

Binder | Kd [µM]
B21 | 6.4
B22 | 57

These binders were tested against T10, Scribble PDZ1 (His-tagged, aa 719-829) (assay: ITC; iTC200, 25°C, 20 mM HEPES pH 7.4; protein 50-100 μM in the cell, peptide 0.64-3 mM in the syringe; single-site fit, stoichiometry fixed to 0.8-1.1; n = 3). Settings: both partners purified.

Binder | fold lower KD than for the unphosphorylated peptide [fold]
B23 | 2

What follows are binders tested against T12, Scribble PDZ1 R762A/A743R (human, UniProt Q14160 719-829, R762A | A743R) in the same assay as above. Settings: both partners purified.
T12 construct: human Scribble, PDZ1, aa 719-829, A743R introduced in the background of R762A; also called R762A/A743R mutant; source: E. coli BL21 Gold (DE3), purified (Ni2+ Sepharose), dialysed
T12 sequence (Q14160 719-829 A743R/R762A): as the sequence (Q14160 719-829) above, with A25R, R44A counted along it

Binder | binding result
B24 | binds
B23 | binds
B25 | binds

The binders below were run against T1, SHANK1 PDZ (human, aa 652-761) (assay: MST; FITC-labelled peptide fixed at 25-50 nM, untagged SHANK1 PDZ titrated (1:1 dilution series); PBS, 10 mM MgCl2, 0.05% Tween-20; thermophoresis and T-Jump signal; triplicate). Settings: both partners purified.

Binder | Kd [µM]
B11 | 62
B12 | 15
B13 | 47
B14 | 4.5
B16 | 52
B17 | 16
